B1: Lipopolysaccharide-induced tumor necrosis factor-alpha factor (Homo sapiens), Q99732 (parent)
chain: MSVPGPYQAATGPSSAPSAPPSYEETVAVNSYYPTPPAPMPGPTTGLVTGPDGKGMNPPSYYTQPAPIPNNNPITVQTVYVQHPITFLDRPIQMCCPSCNKMIVSQLSYNAGALTWLSCGSLCLLGCIAGCCFIPFCVDALQDVDHYCPNCRALLGTYKRL

Variants of: B1
Conditions: with nedd4_human NEDD4, P46934
nedd4_human NEDD4, P46934, sequence (P46934 whole entry): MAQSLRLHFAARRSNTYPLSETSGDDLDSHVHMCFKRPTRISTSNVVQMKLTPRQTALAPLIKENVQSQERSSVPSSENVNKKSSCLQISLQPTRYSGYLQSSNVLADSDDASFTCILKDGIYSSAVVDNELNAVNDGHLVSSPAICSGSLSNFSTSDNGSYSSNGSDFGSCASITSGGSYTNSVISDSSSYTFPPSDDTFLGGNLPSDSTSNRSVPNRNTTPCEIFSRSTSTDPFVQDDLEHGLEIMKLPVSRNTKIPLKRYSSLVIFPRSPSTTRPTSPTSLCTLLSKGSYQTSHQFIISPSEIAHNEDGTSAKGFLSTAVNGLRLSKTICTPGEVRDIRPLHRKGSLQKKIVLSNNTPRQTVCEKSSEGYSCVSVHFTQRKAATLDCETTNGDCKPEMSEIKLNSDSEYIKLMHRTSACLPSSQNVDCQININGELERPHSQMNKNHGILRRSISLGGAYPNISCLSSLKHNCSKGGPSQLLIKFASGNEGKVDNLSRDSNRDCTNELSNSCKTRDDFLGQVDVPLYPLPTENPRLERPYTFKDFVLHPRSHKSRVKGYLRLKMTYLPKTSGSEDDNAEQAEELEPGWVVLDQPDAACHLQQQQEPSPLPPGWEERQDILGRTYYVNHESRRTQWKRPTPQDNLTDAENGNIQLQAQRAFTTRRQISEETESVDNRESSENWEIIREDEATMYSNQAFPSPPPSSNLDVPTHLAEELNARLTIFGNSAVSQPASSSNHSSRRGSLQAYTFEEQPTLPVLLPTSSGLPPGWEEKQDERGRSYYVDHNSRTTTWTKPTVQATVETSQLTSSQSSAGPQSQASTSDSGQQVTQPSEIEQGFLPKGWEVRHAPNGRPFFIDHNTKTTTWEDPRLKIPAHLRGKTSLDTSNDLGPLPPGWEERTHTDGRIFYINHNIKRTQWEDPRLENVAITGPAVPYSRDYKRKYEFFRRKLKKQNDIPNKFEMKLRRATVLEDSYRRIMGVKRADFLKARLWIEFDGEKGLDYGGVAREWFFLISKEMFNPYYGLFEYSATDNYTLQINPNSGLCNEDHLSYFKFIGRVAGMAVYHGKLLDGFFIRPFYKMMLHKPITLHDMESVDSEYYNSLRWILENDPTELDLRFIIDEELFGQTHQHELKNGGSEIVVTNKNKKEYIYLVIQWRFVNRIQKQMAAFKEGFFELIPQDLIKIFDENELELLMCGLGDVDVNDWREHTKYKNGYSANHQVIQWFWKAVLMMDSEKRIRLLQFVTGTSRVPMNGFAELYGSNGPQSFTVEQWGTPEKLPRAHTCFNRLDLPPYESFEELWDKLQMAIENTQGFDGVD

effect of a mutation on the interaction	Variant
with no effect	Y61A
disrupting interaction strength	Y23A
disrupting interaction strength	Y23A;Y61A

— IntAct's records for PubMed 27927196
